According to article PMC3656113:

Assays:
[1] = biological target: platelet activating factor receptor (PAFr) of 16HBE14 human bronchial epithelial cells (human (endogenous in 16HBE14)) (UniProt P25105)
[2] = biological target: recombinant human PAFr coupled to the G-protein Giα3β1γ2 (UniProt P25105); test: ELISA
[3] = biological target: recombinant human PAFr coupled to the G-protein Giα2β1γ2 (UniProt P25105); test: ELISA

pili of N. meningitidis strain 8013SBpptA8G (ChoP+) (natural protein)
> 2 fold: adherence of 8013SBpptA8G bacteria to Chem-1-PAFr cells, fold increase against 8013SB WT bacteria (fluorescence, 30 min) [1] | fold increase against pili of 8013SB WT [2] | fold increase against pili of 8013SB WT [3]
